Measurements from US20210188980A1 (SHANGHAI EPIMAB BIOTHERAPEUTICS, published 2021).
Changes are numbered by the printed parent chain.

T1: recombinant human LAG-3-his protein (Novoprotein) (human, UniProt P18627 23-450)
T1 construct: Bought; also called huLAG-3; not shown: His tag
T1 sequence (looked up): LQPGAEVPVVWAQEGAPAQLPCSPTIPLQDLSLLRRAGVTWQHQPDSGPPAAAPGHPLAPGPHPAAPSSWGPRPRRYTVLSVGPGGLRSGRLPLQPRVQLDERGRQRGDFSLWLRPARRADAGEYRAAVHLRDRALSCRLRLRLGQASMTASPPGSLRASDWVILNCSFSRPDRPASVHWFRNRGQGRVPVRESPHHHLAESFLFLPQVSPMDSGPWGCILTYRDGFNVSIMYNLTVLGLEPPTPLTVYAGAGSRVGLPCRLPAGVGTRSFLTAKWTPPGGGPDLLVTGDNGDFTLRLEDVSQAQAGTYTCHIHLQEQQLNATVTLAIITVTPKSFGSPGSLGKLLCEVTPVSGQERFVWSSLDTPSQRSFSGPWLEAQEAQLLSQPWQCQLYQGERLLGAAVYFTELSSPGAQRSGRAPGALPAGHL

B1: HumAb747-48 (antibody, human IgG1, V domains shown)
VH: EVQLVQSGAEVKKPGATVKLSCKASDFNIKDDYMHWVQQAPGKGLEWIGWIVPENGNTEYASKFQGRVTITADTSTDTAYLELSSLRSEDTAVYYCTVYGDYWGQGTTVTVSS
VL: DIQMTQSPSSLSASVGDRVTITCRASQEISGYLSWLQQKPGKAIKRLIYAASTLDSGVPSRFSGSRSGTDFTLTISSLQPEDFATYYCLQYASYPLTFGQGTKLEIK
notes: humanized mAb747; human IgG1/kappa constant domains
B2: HumAb747-46 (antibody, human IgG1, V domains shown)
VH: B1 VH with K23T, Q38K, V68A, D77N
VL: B1 VL with R46S
notes: as for B1
B3: HumAb747-45 (antibody, human IgG1, V domains shown)
VH: B1 VH with K23T
VL: B1 VL with R46S
notes: as for B1
B4: HumAb747-47 (antibody, human IgG1, V domains shown)
VH: B1 VH with L20I, A24V
VL: B1 VL
notes: as for B1
B5: HumAb747-43 (antibody, human IgG1, V domains shown)
VH: B1 VH with L20I, A24V
VL: B1 VL with R46S
notes: as for B1
B6: HumAb747-44 (antibody, human IgG1, V domains shown)
VH: B1 VH
VL: B1 VL with R46S
notes: as for B1
B7: HumAb747-54 (antibody, human IgG1, V domains shown)
VH: B1 VH with K23T, Q38K, V68A, D77N
VL: B1 VL with K42G, T69S, F71Y, T85D, I106L
notes: as for B1
B8: HumAb747-49 (antibody, human IgG1, V domains shown)
VH: B1 VH with K23T
VL: B1 VL
notes: as for B1
B9: HumAb747-53 (antibody, human IgG1, V domains shown)
VH: B1 VH with K23T
VL: B1 VL with K42G, T69S, F71Y, T85D, I106L
notes: as for B1
B10: HumAb747-51 (antibody, human IgG1, V domains shown)
VH: B1 VH with L20I, A24V
VL: B1 VL with K42G, T69S, F71Y, T85D, I106L
notes: as for B1
B11: HumAb747-50 (antibody, human IgG1, V domains shown)
VH: B1 VH with K23T, Q38K, V68A, D77N
VL: B1 VL
notes: as for B1
B12: HumAb747-52 (antibody, human IgG1, V domains shown)
VH: B1 VH
VL: B1 VL with K42G, T69S, F71Y, T85D, I106L
notes: as for B1
B13: B2-53-IgG (antibody, V domains shown)
VH: EVQLVQSGAEVKKPGASVKVSCKASGFNIKDDYMHWVRQAPGQGLEWIGWIVPENGNTVYASKFQGRVTITADTSINTAYMELSRLRSDDTAVYYCTVYGDYWGQGTTVTVSS
VL: B1 VL with T22N, G41E, K42G, A43T, T53A, T69S, F71Y, Q100G, L104V
notes: human IgG1/kappa constant domains; also called B82-53
B14: B3-48-IgG (antibody, V domains shown)
VH: B13 VH with G26D, N28S, N57K, V59E
VL: B1 VL with T22N, G41E, K42G, A43T, S52M, T69S, F71Y, Q100G, L104V
notes: human IgG1/kappa constant domains
B15: B3-21-IgG (antibody, V domains shown)
VH: B13 VH with G26D, V59E, Y102V
VL: B1 VL with T22N, S26M, G41E, K42G, A43T, T69S, F71Y, S93Y, Q100G, L104V
notes: as for B14
B16: B3-43-IgG (antibody, V domains shown)
VH: B13 VH with R38C, V59E
VL: B1 VL with T22N, G41E, K42G, A43T, T53H, T69S, F71Y, Q100G, L104V
notes: as for B14
B17: B3-46-IgG (antibody, V domains shown)
VH: B13 VH with N57L, V59E
VL: B1 VL with T22N, G41E, K42G, A43T, A51T, T69S, F71Y, Q100G, L104V
notes: as for B14
B18: B3-69-IgG (antibody, V domains shown)
VH: B13 VH with V59H
VL: B1 VL with T22N, G41E, K42G, A43T, A50E, T69S, F71Y, Q100G, L104V
notes: as for B14
B19: HumAb747V-63 (antibody, human IgG1, V domains shown)
VH: EVQLVQSGAEVKKPGATVKLSCTASGFNIKDDYMHWVKQRPEQGLDWIGWIVPRNGNTMYASKFQGKATITADTSTNTAYLELSSLRSEDTAVYYCTVYGDYWGQGTTVTVSS
VL: B1 VL with K42G, T53A, T69S, F71Y, T85D, I106L
notes: engineered HumAb747-60 variant; human IgG1/kappa constant domains
B20: HumAb747V-66 (antibody, human IgG1, V domains shown)
VH: B19 VH with R54E, M59V
VL: B1 VL with K42G, S56L, T69S, F71Y, T85D, I106L
notes: as for B19
B21: HumAb747V-61 (antibody, human IgG1, V domains shown)
VH: B19 VH with G26D, R54E, G56A, M59E
VL: B1 VL with K42G, T69S, F71Y, T85D, I106L
notes: as for B14
B22: HumAb747V-64 (antibody, human IgG1, V domains shown)
VH: B19 VH
VL: B1 VL with K42G, T53A, S56L, T69S, F71Y, T85D, I106L
notes: as for B19
B23: HumAb747V-65 (antibody, human IgG1, V domains shown)
VH: B19 VH
VL: B1 VL with K42G, T69S, F71Y, T85D, I106L
notes: as for B19
B24: HumAb747V-62 (antibody, human IgG1, V domains shown)
VH: B19 VH
VL: B1 VL with K42G, S56L, T69S, F71Y, T85D, I106L
notes: as for B19
B25: HumAb747V-70 (antibody, human IgG1, V domains shown)
VH: B19 VH with M59V
VL: B1 VL with K42G, S56L, T69S, F71Y, T85D, I106L
notes: as for B19
B26: HumAb747V-69 (antibody, human IgG1, V domains shown)
VH: B19 VH with R54E, M59V
VL: B1 VL with K42G, T69S, F71Y, T85D, I106L
notes: as for B19
B27: HumAb747V-68 (antibody, human IgG1, V domains shown)
VH: B19 VH with R54E, M59V
VL: B1 VL with K42G, T53A, S56L, T69S, F71Y, T85D, I106L
notes: as for B19

The binders below were run against T1, recombinant human LAG-3-his protein … (assay: BLI Octet, Ab on AHC sensor, huLAG-3-his; test group 1).
Description: (§1) All 18 humanized antibodies (Table 34) and a chimeric antibody having the parental murine VH and VL domains (mAb747c) were ranked by dissociation rate constant (koff). Briefly, antibodies were characterized for affinities and binding kinetics by Octet®RED96 biolayer interferometry (Pall ForteBio LLC). Antibodies were captured by Anti-hIgG Fc Capture (AHC) Biosensors (Pall) at a concentration of 100 nM for 30 seconds. Sensors were then dipped into running buffer (1× pH7.2 PBS, 0.05% Tween 20, 0.1% BSA) for 60 seconds to check baseline. Binding was measured by dipping sensors into a single concentration of recombinant human LAG-3-his protein (Novoprotein). Dissociation was followed by dipping sensors into running buffer for 1200 seconds. The association and dissociation curves were fitted to a 1:1 Langmuir binding model using FortéBio Data Analysis software (Pall). In each test group, the off-rates of antibodies were able to be compared with that of mAb747c. The off-rate ratios were calculated by the off-rate of antibody to that of mAb747c of its group and were compared all together. The lower the ratio was, the higher was the affinity of the antibody.

koff [s⁻¹] | off-rate ratio to that of mAb747c [%] | Binder
0.00803 | 592 | B1
0.0109 | 801 | B2
0.0108 | 797 | B3
0.0144 | 1060 | B4
0.00925 | 682 | B5
0.011 | 809 | B6

These binders were tested against T1, recombinant human LAG-3-his protein … (assay: BLI Octet, Ab on AHC sensor, huLAG-3-his; test group 2).
Description: as §1

koff [s⁻¹] | off-rate ratio to that of mAb747c [%] | Binder
0.00423 | 314 | B7
0.00773 | 575 | B8
0.0043 | 319 | B9
0.0119 | 888 | B10
0.00719 | 534 | B11
0.00436 | 324 | B12

Molecular target: T1, recombinant human LAG-3-his protein …
Test: BLI Octet, Ab on AHC sensor, huLAG-3-his; test group 1
Remark: another data set of the same source
Description: as §1, with “9” for “18”, “25)” for “34)”, “Octet RED96” for “Octet®RED96”, “FortéBio” for “ForteBio”, “Anti-HIgG” for “Anti-hIgG”, “(Pall).” for “(Pall). In each test group, the off-rates of antibodies were able to be compared with that of mAb747c. The off-rate ratios were calculated by the off-rate of antibody to that of mAb747c of its group and were compared all together. The lower the ratio was, the higher was the affinity of the antibody.”
The seven Fab clones were converted to full IgG proteins. Briefly, the VH and VL genes were produced synthetically and then cloned into vectors containing coding sequences for the human IgG1 and human kappa constant domains, respectively. The heavy chain and cognate light chain plasmids were co-transfected into HEK 293E cells, individually. After approximately six days of post-transfection cell culture, the supernatants were harvested and subjected to Protein A affinity chromatography. The affinity of purified antibodies was ranked by Octet® RED96 biolayer interferometry (see, Example 9.1, supra).

koff [s⁻¹] | off-rate ratio to that of mAb747c [%] | Binder
0.0018 | 120 | B13
0.00285 | 190 | B14
0.00198 | 132 | B15
0.00588 | 392 | B16
0.00248 | 165 | B17
0.00359 | 239 | B18

Molecular target: T1, recombinant human LAG-3-his protein …
Test: as above
Remark: another data set of the same source
Description: as §1, with “9” for “18”, “25)” for “34)”, “Octet RED96” for “Octet®RED96”, “FortéBio” for “ForteBio”, “Anti-HIgG” for “Anti-hIgG”, “(Pall).” for “(Pall). In each test group, the off-rates of antibodies were able to be compared with that of mAb747c. The off-rate ratios were calculated by the off-rate of antibody to that of mAb747c of its group and were compared all together. The lower the ratio was, the higher was the affinity of the antibody.”
(§2) All 13 humanized antibodies (Table 39) and chimeric anti-LAG-3 antibody mAb747c having the parental murine VH and VL domains were ranked by dissociation rate constant (koff) in the same manner described in Example 9.1 supra. In each test group, the off-rates of antibodies were able to be compared with that of mAb747c. The off-rate ratios were calculated by the off-rate of antibody to that of mAb747c of its group and were compared all together. The lower the ratio was, the higher was the affinity of the antibody.

koff [s⁻¹] | off-rate ratio to that of mAb747c [%] | Binder
0.000522 | 85 | B19
0.000584 | 95 | B20
0.000686 | 112 | B21
0.00045 | 73 | B22
0.000292 | 47 | B23
0.00048 | 78 | B24

Molecular target: T1, recombinant human LAG-3-his protein …
Test: BLI Octet, Ab on AHC sensor, huLAG-3-his; test group 2
Remark: another data set of the same source
Description: as §1, with “9” for “18”, “25)” for “34)”, “Octet RED96” for “Octet®RED96”, “FortéBio” for “ForteBio”, “Anti-HIgG” for “Anti-hIgG”, “(Pall).” for “(Pall). In each test group, the off-rates of antibodies were able to be compared with that of mAb747c. The off-rate ratios were calculated by the off-rate of antibody to that of mAb747c of its group and were compared all together. The lower the ratio was, the higher was the affinity of the antibody.”
as §2

koff [s⁻¹] | off-rate ratio to that of mAb747c [%] | Binder
0.000273 | 40 | B25
0.000357 | 53 | B26
0.000295 | 41 | B27
